Test results taken from US7544481 (REGENTS OF THE UNIVERSITY OF MICHIGAN, dated 2009).

B1: CD40bp fused to the activation domain of GAL4 (other, not shown: large carriers)
chain: MESSKKMDSPGALQTNPPLKLHTDRSAGTPVFVPEQGGYKEKFVKTVEDKYKCEKCHLVLCSPKQTECGHRFCESCMAALLSSSSPKCTACQESIVKDKVFKDNCCKREILALQIYCRNESRGCAEQLMLGHLVHLKNDCHFEELPCVRPDCKEKVLRKDLRDHVEKACKYREATCSHCKSQVPMIALQKHEDTDCPCVVVSCPHKCSVQTLLRSELSAHLSECVNAPSTCSFKRYGCVFQGTNQQIKAHEASSAVQHVNLLKEWSNSLEKKVSLLQNESVEKNKSIQSLHNQICSFEIEIERQKEMLRNNESKILHLQRVIDSQAEKLKELDKEIRPFRQNWEEADSMKSSVESLQNRVTELESVDKSAGQVARNTGLLESQLSRHDQMLSVHDIRLADMDLGFQVLETASYNGVLIWKIRDYKRRKQEAVMGKTLSLYSQPFYTGYFGYKMCARVYLNGDGMGKGTHLSLFFVIMRGEYDALLPWPFKQKVTLMLMDQGSSRRHLGDAFKPDPNSSSFKKPTGEMNIASGCPVFVAQTVLENGTYIKDDTIFIKVIVDTSDLPDP
notes: Prey from a human B-cell cDNA library; also called CD40bp (yeast prey, pACT)

Experiments:
[1] = target: yeast Ser-Thr kinase SNF1 fused to the DNA-binding domain of GAL4 (yeast, UniProt P04386 1-147; P06782 1-633, limits assumed); test: yeast two-hybrid cotransformation, beta-galactosidase filter assay
From the text: (§1) Yeast Two-hybrid Screen—Using a modification of the method of Harper et al. (1993) *Cell* 75:805-816, a hybrid gene encoding the GAL4 DNA-binding domain (amino acids 1-147), hemagglutinin ("HA") epitope tag, and CD40 cytoplasmic region (amino acids 216-279) was constructed in the yeast bait vector pAS1CYH2. This construct was designated GAL4CD40, and expression of the fusion protein was confirmed by anti-HA immunoblotting. This bait plasmid was cotransformed with a human B-cell cDNA expression library (prey) fused to the activation domain of GAL4 in the pACT plasmid. Interaction between bait- and prey-encoded genes in the Y190 yeast strain reconstitutes GAL4 as an active transcriptional complex, allowing growth in the absence of histidine and activation of the β-galactosidase reporter gene. Thirty-six of the 10^6 transformants screened grew in the absence of histidine and had detectable β-galactosidase staining within 10 minutes of incubation with the chromogenic substrate 5-bromo-4-chloro-3-indolyl β-D-galactoside. […] Cotransformation assays were repeated in the yeast Y190 strain, where CD40bp fused to the activation domain of GAL4 was cotransformed with native CD40 (pCD40T) or the indicated heterologous baits expressed as fusions with the DNA-binding domain of GAL4. […]

[2] = target: B1; test: as above
From the text: as §1

[3] = target: [35S]methionine-labeled luciferase protein (UniProt P08659 1-550 = luciferase, limits assumed, [35S]methionine label); test: GST pull-down of in vitro translated 35S-labeled protein, autoradiography
Experimental: GST Fusion Protein Expression and In Vitro Binding Assay—Native (CD40T) and mutant (CD40A) CD40 sequences used in the construction of the yeast bait vectors were excised and subcloned into the glutathione S-transferase ("GST") fusion protein vector pGSTag (as described in Ron et al. (1992) *BioTechniques* 13:866-869) and transformed into the *Escherichia coli* strain BL21 […] pLysS (as described in Studier et al. (1991) *J. Mol. Bio.* 219:37-44). GST and GST fusion proteins were prepared using published procedures of Studier et al. (1991) supra, and the recombinant proteins were immobilized onto glutathione-agarose beads at a concentration of about 8 mg/ml (as described in Harper et al. (1993) supra).
Figure 2: FIGS. 2A and 2B show the interaction of in vitro translated CD40bp with GST fusion proteins. [^35S]Methionine-labeled CD40bp or luciferase protein as control was incubated with GST alone, GSTCD40T (native CD40 cytoplasmic domain), or GSTCD40A (mutant CD40 cytoplasmic domain $Thr^234 \rightarrow Ala$). Following incubation and washing, GST beads were boiled in SDS-sample buffer and resolved on a 10% acrylamide gel, and bound protein was visualized by autoradiography.

[35S]methionine-labeled luciferase protein, sequence (P08659 whole entry, the tested form may be a part): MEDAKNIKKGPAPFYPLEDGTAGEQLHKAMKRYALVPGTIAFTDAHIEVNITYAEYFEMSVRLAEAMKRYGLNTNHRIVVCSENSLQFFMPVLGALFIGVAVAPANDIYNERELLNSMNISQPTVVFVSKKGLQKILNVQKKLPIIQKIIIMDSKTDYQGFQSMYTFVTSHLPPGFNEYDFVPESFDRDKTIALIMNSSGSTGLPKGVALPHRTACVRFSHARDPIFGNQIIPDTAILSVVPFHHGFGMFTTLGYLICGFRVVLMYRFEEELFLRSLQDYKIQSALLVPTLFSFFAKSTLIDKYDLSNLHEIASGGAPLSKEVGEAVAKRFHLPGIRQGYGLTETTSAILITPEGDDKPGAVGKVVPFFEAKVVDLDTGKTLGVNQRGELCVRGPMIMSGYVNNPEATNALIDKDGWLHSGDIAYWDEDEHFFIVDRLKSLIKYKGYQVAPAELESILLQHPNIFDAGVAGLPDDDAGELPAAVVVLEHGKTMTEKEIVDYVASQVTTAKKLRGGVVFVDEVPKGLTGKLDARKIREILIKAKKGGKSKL

B1: no binding [1].

B2: cytoplasmic domain of the p55 TNF receptor (amino acids 206-426) fused to the DNA-binding domain of GAL4 (other, UniProt P04386 1-147, looked up)
chain: MKLLSSIEQACDICRLKKLKCSKEKPKCAKCLKNNWECRYSPKTKRSPLTRAHLTEVESRLERLEQLFLLIFPREDLDMILKMDSLQDIKALLTGLFVQDNVNKDAVTDRLASVETDMPLTLRQHRISATSSSEESSNKGQRQLTVSRYQRWKSKLYSIVCGKSTPEKEGELEGTTTKPLAPNPSFSPTPGFTPTLGFSPVPSSTFTSSSTYTPGDCPNFAAPRREVAPPYQGADPILATALASDPIPNPLQKWEDSAHKPQSLDTDDPATLYAVVENVPPLRWKEFVRRLGLSDHEIDRLELQNGRCLREAQYSMLATWRRRTPRREATLELLGRVLRDMDLLGCLEDIEEALCGPAALPPAPSLLR
notes: The numbering probably counts on the mature receptor; also called pTNFR
B2: no binding [2].

B3: GSTCD40T (GST fused to the native CD40 cytoplasmic domain) (other, human, UniProt P25942 216-277, looked up)
chain: KKVAKKPTNKAPHPKQEPQEINFPDDLPGSNTAAPVQETLHGCQPVTQEDGKESRISVQERQ
notes: range 216-279; Immobilized on glutathione-agarose beads; also called native CD40 (GSTCD40T); not shown: glutathione S-transferase of the vector pGSTag
B3: no binding [3].
